Test results taken from CN113150138A.

Target: 重组KPC-2蛋白 (recombinant KPC-2 protein, Klebsiella pneumoniae carbapenemase KPC-2) (Klebsiella pneumoniae (肺炎克雷伯菌)) (UniProt Q848S6)
Assay: indirect ELISA, KPC-2 coated at 100 ng/well, antibody diluted 1:10000 to 1:2560000

Sequence of UniProt Q848S6 (Q848S6 25-293): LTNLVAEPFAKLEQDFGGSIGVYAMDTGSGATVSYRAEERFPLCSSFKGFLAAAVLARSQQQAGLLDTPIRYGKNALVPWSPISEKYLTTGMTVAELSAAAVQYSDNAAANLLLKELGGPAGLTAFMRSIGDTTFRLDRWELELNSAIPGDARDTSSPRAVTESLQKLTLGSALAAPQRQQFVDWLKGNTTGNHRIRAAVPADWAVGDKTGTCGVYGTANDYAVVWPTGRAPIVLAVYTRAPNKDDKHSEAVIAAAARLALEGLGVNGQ

B1: KPC-2单克隆抗体 4B2 (antibody, V domains shown)
VH: QVQLQQPGAELVKPGASVKMSCKASGYTFTSYNMHWVKQTPGQGLEWIGGLYPGNGDTSYNQKFKGRATLTADKSSSTAYMKLSSLTSEDSAVYFCARVGYGHYYFDYWGQGTTLTVSS
VL: DIKMTQSPSSMYASLGERVTIICKASQDINNYLSWFQQKPGKSPKTLIYRANRLAEGVPSRFSGIGSGQDYSLTISSLEYEDMGIYYCLQYDEFPLTFGAGTKLELK
- 效价 (ELISA titer, highest positive dilution) (dilution factor): > 2e+06

B2: KPC-2单克隆抗体 1D7 (antibody, V domains shown)
VH: EVQLQQSGPELVKPGASMKISCKASGYSFTGYTMNWVKQSHGKNLEWIGLINPYNGVTTYNQRFKDKATLTVDKSSITAYMELLSLTSEDSAVYYCARRGLLGLYAMDYWGQGTSVTVSS
VL: DVQITQSPSYLAASPGETITINCRASESIFKFLAWYQEKPGKTNRLLIYSGSTLQSGIPSRFSGSGSGTDFTLTISSLEPEDFAMYYCQQHNEYPLTFGAGTKLELK
- 效价 (ELISA titer, highest positive dilution) (dilution factor): > 2e+06
